Experimental data: patent US20130028978A1, “COMPOSITIONS AND METHODS FOR WOUND TREATMENT” (The Trustees of Columbia University in the City of New York, priority 2009, published 2013)
Entries after “also recorded” stand apart in the source; their conditions may differ.

Assays:
keloid cell = experiment: Keloid cell matrix synthesis; type: cell-based; conditions: 0, 50, 100, 200, 500 ng/ml
[1] = test system: MSCs in collagen type I gel; experiment: Collagen gel contraction assay; type: cell-based, human; conditions: cell-populated collagen lattices, up to 7 days
Description: Neutralized collagen type I (2 mg/mL) (R&D Systems, Minneapolis, Minn.) was mixed thoroughly with 1×10^6/mL MSCs, MSC-Fb or αSMA+ cells. Cell-populated collagen solution was cast in 24-well plates for 1 hr at 37° C. to induce gelation. Upon 48-hr incubation, cell-populated collagen lattices were physically detached and allowed to float freely in medium. Up to the tested 7 days, the diameters of cell-populated collagen lattices were measured on digital images.

[2] = test system: MSCs or MSC-derived fibroblasts (MSC-Fb); experiment: Myofibroblastic differentiation: αSMA expression by immunofluorescence and flow cytometry; type: cell-based, human
Description: MSC-derived fibroblasts were subjected to 5 ng/mL recombinant human TGFβ1 (R&D Systems, Minneapolis, Minn.) for 7 days. Undifferentiated hMSCs were treated with TGFβ1 as control. The expression of αSMA (Abcam, Cambridge, Mass.) was evaluated by immunofluorescence with rhodamine-phalloidin (Invitrogen, Carlsbad, Calif.). The number of αSMA+ cells was quantified by flow cytometry.
Briefly, cells were trypsinized, counted, resuspended into 1×10^6 cells/tube and fixed in […] formaldehyde. Following washing in 0.1% triton, the cells were incubated with αSMA primary antibody (Abcam, Cambridge, Mass.) for 30 min. Following centrifugation at 400 g for 5 min, the cells were incubated with fluorochrome-labeled secondary antibody (Abcam, Cambridge, Mass.) for 30 min in the dark, and resuspended in PBS supplemented with 3% BSA and 1% sodium azide. The samples were then analyzed using a multifunctional cell sorter (FACSAria™ II; BD Biosciences, San Jose, Calif.).

[3] = test system: calvarial suture mesenchymal cells; experiment: Fibroblastic differentiation of calvarial suture mesenchymal cells; type: cell-based, rat; conditions: 100 ng/mL, cells from p7 patent calvarial sutures
Description: To isolate calvarial mesenchymal cells, the posterior interfrontal suture excluding calvarial bones was carefully dissected from p7 rat calvaria using surgical scissors. The overlying periosteum and the underlying dura mater were removed under dissection microscope. The isolated suture mesenchyme was lysed using 2 mg/mL collagenase for 1 hr at 37° C., and filtered with a tissue strainer (Fisher, Pittsburgh, Pa.). After centrifugation, the collected cells were counted using trypan blue, plated at 20,000-30,000 cells per 6-well plate, and allowed to attach for about 5 days, followed by medium change every 2-3 days until confluence. P1 or P2 calvarial cells were induced for osteogenic, chondrogenic, adipogenic, and fibroblastic differentiations for 4 wks as described below.

[4] = test system: calvarial suture explants; experiment: Ex vivo modulation of calvarial morphogenesis in organ culture; parameters: species or system Sprague-Dawley rats
Description: Calvarial explants, including frontal and parietal bones with intervening interfrontal, coronal and sagittal sutures were harvested with intact dura mater from p10 male Sprague-Dawley rats (Harlan, Indianapolis, Ind.). Isolated calvaria were placed in 12-well tissue culture plates with serum-free medium supplemented with 0 or 50 ng/mL recombinant human CCN2/CTGF (35), with medium change every 2 days. The CCN2/CTGF concentration was determined (data not shown). Five to 25 days following CCN2/CTGF treatment, Tn-C contents in supernatant were assayed using ELISA. Explant-cultured calvarial sutures were sectioned sagittally for H&E staining and immunohistochemistry. Calvarial sutures were scanned with pCT (vivaCT 40; Scanco, Southeastern, Pa.) to measure suture width.

[5] = test system: CCN2/CTGF-treated MSCs (MSC-Fb); experiment: Osteogenic, chondrogenic and adipogenic differentiation of CCN2/CTGF-treated MSCs (von Kossa, Alizarin Red, Safranin O, Oil-Red O); type: cell-based, human
Description: Chondrogenic medium was supplemented with 10 ng/mL transforming growth factor β3 (TGFβ3) (R&D Systems, Minneapolis, Minn.), whereas osteogenic medium was supplemented with 100 nM dexamethasone, 10 mM β-glycerophosphate, and 0.05 mM ascorbic acid-2-phosphate (Sigma) per our prior methods (31, 51). At Days 14 and 28, von Kossa staining and calcium assay was performed to evaluate osteogenic differentiation, whereas safranin O (Saf-O) straining and glycosaminoglycan (GAG) assays were performed to evaluate chondrogenic differentiation (Blyscan™, Biocolor, UK).
Osteogenic and chondrogenic medium were prepared as described above. Adipogenic medium contained […], 0.5 mM isobutylmethylxanthine, and […] per our prior methods (31, 52, 53). In 4 wks, Alizarin Red, Saf-O, and Oil-Red O staining were performed.

[6] = test system: Human mesenchymal stem cells (hMSCs); experiment: Real-time quantitative PCR of MSC, fibroblastic, osteogenic, chondrogenic and myofibroblastic markers in CCN2/CTGF-treated hMSCs; type: cell-based
Description: (§1) Two to four weeks following CCN2/CTGF treatment, collagen type I and tenascin-C (Tn-C) were assayed by ELISA using commercial kits (Chondrex, Redmond, Wash. and IBL-America, Minneapolis, Minn.). Collagen type I matrix was lysed using 0.5 M acetic acid. Collagen deposition was visualized using Trichrome staining. Total RNA was isolated using Trizol from CCN2/CTGF-treated hMSCs. Following lysing with Trizol, samples were incubated for 5 min at RT. A total of 0.2 mL chloroform per mL Trizol was added, and followed by mixing and incubation for 3 min. After centrifugation at 12,000×g and 4° C. for 15 min, the upper phase was transferred into a new tube with 500 μL isopropanol added. After 10 min incubation and another centrifugation for 10 min at 12,000×g, the supernatant was discarded. The pellet was washed with 1 mL 75% ethanol and dried for 5-10 min. RNA samples were eluted in 50 μL DEPC-water, assessed for concentration and purity at 260 and 280 nm, and stored at −80° C. prior to reverse transcription. All RNA samples were reverse transcribed using a kit (Applied Biosystems, Foster City, Calif.). For mRNA quantification, real-time quantitative PCR reactions with the cDNA samples were performed using 7300 Real Time PCR System TaqMan® gene expression assays (Applied Biosystems, Foster City, Calif.). Commercially available primers and probes for human collagen types I and III, Tn-C, fibronectin (FN), matrix metallopeptidase-1 (MMP-1), fibroblastic specific protein 1 (FSP1), and vimentin were used (49, 50). Collagen type II (Col-II) and osteocalcin (OC) were selected as chondrogenic and osteogenic differentiation markers, respectively. CD29, CD44, CD105, CD106, CD117, BMPR, and sca1 were selected as MSC markers (30, 31). GAPDH was used as housekeeping gene.

[7] = test system: Human mesenchymal stem cells (hMSCs); experiment: CCN2/CTGF fibroblastic differentiation of hMSCs: collagen deposition (Trichrome staining), collagen type I and tenascin-C ELISA; type: cell-based
Excerpt: Human mesenchymal stem cells (hMSCs) were isolated from fresh whole bone marrow samples of two anonymous adult donors (age range: 20-25 yrs old) (AllCells, Berkeley, Calif.). Mononucleated and adherent cells were purified by centrifugation through a density gradient (Ficoll-Paque) per our prior methods (30) and using negative selection following manufacturer's protocols (RosetteSep, StemCell Technologies, Vancouver, Canada) to remove hematopoietic cells and other differentiated cells.
Briefly, bone marrow was transferred to a 50 mL tube, followed by addition of […] of RosetteSep and incubation for 20 min. Then 15 mL PBS in 2% fetal bovine serum (FBS) and 1 mM ethylenediaminetetraacetic acid (EDTA) were added to a total volume of ˜30 mL. The sample was layered on 15 mL Ficoll-Paque and centrifuged 25 min at 3000×g. The entire layer of enriched cells was removed from Ficoll-Paque interface. The cocktail was centrifuged at 1000 rpm for 10 min. Collected cells were counted using trypan blue, plated at 0.5-1 million cells per 100 mm dish and allowed to attach for about 5 days, followed by regular medium change every two days. At 80-90% confluence, cells were trypsinized, centrifuged, resuspended in growth medium as passage 1 (P1) cells, and incubated in 5% CO2 at 37° C., with fresh medium changes every 3-4 days. Growth medium was defined as Dulbecco's Modified Eagle's Medium-Low Glucose (DMEM-LG; Sigma, St. Louis, Mo.), 1% antibiotic (1× Antibiotic-Antimycotic, including […] Penicillin G sodium, 10 mg/mL Streptomycin sulfate and 0.25 μg/mL amphotericine B) (Gibco, Invitrogen, Carlsbad, Calif.) and 10% Fetal Bovine Serum (FBS; Atlanta Biologicals, Norcross, Ga.).
P3 or P4 hMSCs were culture-expanded in monolayer (˜5,000 cells/well) in 12-well plates. At 80-90% confluence, hMSCs were culture-supplemented with 0, 10, 50 or 100 ng/mL recombinant human connective tissue growth factor (CTGF) (BioVendor, Candler, N.C.) and 50 μg/mL ascorbic acid (Sigma), with conditioned medium change every third day. […] Accordingly, 100 ng/mL CCN2/CTGF was selected for fibroblastic differentiation for in vitro experiments.
as §1

[8] = 2 and 4 wks of CCN2/CTGF treatment
[9] = 2 and 4 wks, vs MSCs without CCN2/CTGF

COC(=O)[C@@]1(O)C[C@H]2O[C@]1(C)n1c3ccccc3c3c4c(c5c6ccccc6n2c5c31)C(=O)NC4 [K252A]
keloid cell matrix synthesis (keloid cell): inhibits keloid cell matrix synthesis

TGFβ1: recombinant human TGFβ1 (R&D Systems), a known stimulant for myofibroblast phenotype
contraction of collagen gel [1]: moderate contraction | αSMA expression (immunofluorescence) ([2]; 5 ng/mL TGFβ1 on CCN2/CTGF-treated MSCs / MSC-derived fibroblastic cells): readily expressed αSMA+ microfilaments | cells that gained αSMA phenotype (flow cytometry) ([2]; TGFβ1 stimulation of CCN2/CTGF-treated MSCs (MSC-Fb)): 31.9% | cells that gained αSMA phenotype (flow cytometry) ([2]; TGFβ1 stimulation of undifferentiated MSCs without prior CCN2/CTGF treatment): 1.8%

B1: CCN2/CTGF: recombinant human connective tissue growth factor (BioVendor); 36-38 kDa cysteine-rich protein of the CCN family; SEQ ID NO: 1 (protein, listed as Homo sapiens)
chain: MTAASMGPVRVAFVVLLALCSRPAVGQNCSGPCRCPDEPAPRCPAGVSLVLDGCGCCRVCAKQLGELCTERDPCDPHKGLFCDFGSPANRKIGVCTAKDGAPCIFGGTVYRSGESFQSSCKYQCTCLDGAVGCMPLCSMDVRLPSPDCPFPRRVKLPGKCCEEWVCDEPKDQTVVGPALAAYRLEDTFGPDPTMIRANCLVQTTEWSACSKTCGMGISTRVTNDNASCRLEKQSRLCMVRPCEADLEENIKKGKKCIRTPKISKPIKFELSGCTSMKTYRAKFCGVCTDGRCCTPHRTTTLPVEFKCPDGEVMKKNMMFIKTCACHYNCPGDNDIFESLYYRKMYGDMA
differentiation into fibroblast-like cells (Trichrome) [3]: readily differentiated into fibroblast-like cells that are highly Trichrome positive | contraction of collagen gel [1]: moderate contraction | αSMA expression (flow cytometry) ([2]; CCN2/CTGF-treated MSCs (MSC-Fb), no TGFβ1): general absence of αSMA; also recorded: absence of αSMA expression | αSMA expression (immunofluorescence) ([2]; CCN2/CTGF-treated MSCs, no TGFβ1): did not express αSMA; also recorded: minimal | rescue of calvarial suture from ectopic mineralization ([4]; 50 ng/mL to p10 explant for 25 days): rescued the calvarial suture from undergoing ectopic mineralization | rescue of calvarial suture from synostosis ([4]; 100 ng/mL, ex vivo culture to p35): rescued calvarial suture from undergoing synostosis | FSP1 and vimentin expression in calvarial suture ([4]; ex vivo CCN2/CTGF-treated suture): expressed | suture width (μCT) ([4]; p35, vs without CCN2/CTGF): significantly greater; also recorded: significantly wider | Tn-C (tenascin C) content of sutures ([4]; vs CCN2/CTGF-free sutures): significantly greater; also recorded: significantly more | Safranin O staining ([5]; CCN2/CTGF-treated MSCs): negative | Von Kossa staining ([5]; CCN2/CTGF-treated MSCs): negative | ability to differentiate into osteogenic, chondrogenic and adipogenic cells ([5]; after 4 wk CCN2/CTGF stimulation (100 ng/mL), vs CCN2/CTGF-free MSCs): diminished ability to differentiate; also recorded: minimal capacity to further differentiate | MSC stemness markers (CD29, CD44, CD105, CD106, CD117, BMPR, Sca1) [6, 8]: steady decreases; also recorded: gradually attenuated | fibroblastic mRNA markers (collagen types I and III, Tn-C, fibronectin, MMP-1, FSP1, vimentin) [6, 8]: concomitant increases; also recorded: gradually increased | chondrogenic marker collagen type II expression ([6]; CCN2/CTGF-treated MSCs): undetectable | myofibroblastic marker αSMA expression (RT-PCR) ([6]; CCN2/CTGF-treated MSCs): αSMA negative; also recorded: undetectable | osteogenic marker osteopontin expression ([6]; CCN2/CTGF-treated MSCs): undetectable; also recorded: minimally expressed | collagen deposition with dose (Goldner's Trichrome staining) ([7]; 0, 10, 50 or 100 ng/mL, 4 wks): increased with increasing CCN2/CTGF doses | collagen synthesis ([7]; 10 ng/mL): sufficient to stimulate collagen synthesis | collagen synthesis ([7]; 50 ng/mL and 100 ng/mL, compared with 10 ng/mL): apparently more potent | collagen synthesis (Trichrome staining) ([7]; 100 ng/mL, 4 wks, vs MSCs without CCN2/CTGF): induced remarkable collagen synthesis; also recorded: prompted substantial collagen synthesis | collagen type I content (ELISA) [7, 9]: significantly greater; also recorded: significantly higher | tenascin-C content (ELISA) [7, 9]: significantly greater; also recorded: significantly higher
